From US8920798B2, “Myostatin binding agents, nucleic acids encoding the same, and methods of treatment” (Amgen Inc., priority 2002, dated 2014)
One block for each molecule: values may come before it.

Tests used:
[1] = In vivo pharmacokinetics in CD1 nu/nu mice; design: species or system mouse; conditions: 10 mg/kg and 5 mg/kg, peptibodies without the LE sequences
Description: In vivo pharmacokinetics experiments were performed using representative peptibodies without the LE sequences. 10 mg/kg and 5 mg/kg dosages were administered to CD1 nu/nu mice and the following parameters determined. Cmax (ug/mL), area under the curve (AUC) (ug-hr/mL), and half-life (hr).

[2] = system: CD1 nu/nu mouse model; assay: In vivo anabolic activity in CD1 nu/nu mouse model; conditions: CD1 nu/nu male mice; 1 and 3 mg/kg twice weekly for 35 days; vs 1× peptibody or huFc control; FIG. 5
Text: The CD1 nu/nu mouse model (Charles River Laboratories, Massachusettes) was used to determine the in vivo efficacy of the peptibodies of the present invention which included the human Fc region (huFc). This model responded to the inhibitors of the present invention with a rapid anabolic response which was associated with increased dry muscle mass and an increase in myofibrillar proteins but was not associated with accumulation in body water content.
A group of 10 8 week old CD1 nu/nu mice were treated twice weekly or once weekly with dosages of 1 mg/kg, 3 mg/kg and 10 mg/kg (subcutaneous injection). The control group of 10 8 week old CD1 nu/nu mice received a twice weekly (subcutaneous) injection of huFc (vehicle) at 10 mg/kg. The animals were weighed every other day and lean body mass determined by NMR on day 0 and day 13. The animals are then sacrificed at day 14 and the size of the gastrocnemius muscle determined.
In another example, the 1× mTN8-19-32 peptibody was administered to CD1 nu/nu mice in a biweekly injection of 1 mg/kg, 3 mg/kg, 10 mg/kg, and 30 mg/kg compared with the huFc control (vehicle).
CD1 nu/nu male mice (10 animals per group) were treated with twice weekly injections of 1 mg/kg and 3 mg/kg of 1× mTN8-19-7 and 2× mTN8-19-7 for 35 days, while the control group (10 animals) received twice weekly injections of huFc (3 mg/kg).

[3] = system: C57B/6 mice; assay: Gripping strength in C57B/6 mice; type: in vivo, mouse; conditions: 4 month old male C57B/6 mice; s.c. 2 injections per week, 5 mg/kg per week, 30 days; measured day 18 of recovery
Description: Normal age-matched 4 month old male C57B/6 mice were treated for 30 days with 2 injections per week subcutaneous injections 5 mg/kg per week of 2× mTN8-19-33, 2× mTN8-19-7, and huFc vehicle control group (10 animals/group). The animals were allowed to recover without any further injections. Gripping strength was measured on day 18 of the recovery period. Gripping strength was measured using a Columbia Instruments meter, model 1027 dsm (Columbus, Ohio).

[4] = target: T1, myostatin (Homo sapiens, UniProt O14793); assay: C2C12 pMARE-luc cell based myostatin activity assay; conditions: Table VIII; affinity matured peptibodies; a range of values is given
T1 construct: To produce mature myostatin, the pooled promyostatin was enzymatically cleaved between the propeptide and mature myostatin C terminal; made in house; host or cells: E. coli K-12 strain 2596 (ATCC #202174)
T1 sequence (O14793 267-375): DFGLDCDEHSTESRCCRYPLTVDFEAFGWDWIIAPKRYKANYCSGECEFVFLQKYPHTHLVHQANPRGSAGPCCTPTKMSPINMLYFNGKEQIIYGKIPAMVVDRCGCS
Text: A myostatin-responsive reporter cell line was generated by transfection of C2C12 myoblast cells (ATCC No: CRL-1772) with a pMARE-luc construct. The pMARE-luc construct was made by cloning twelve repeats of the CAGA sequence, representing the myostatin/activin response elements (Dennler et al. EMBO 17: 3091-3100 (1998)) into a pLuc-MCS reporter vector (Stratagene cat #219087) upstream of the TATA box. The myoblast C2C12 cells naturally express myostatin/activin receptors on its cell surface. When myostatin binds the cell receptors, the Smad pathway is activated, and phosphorylated Smad binds to the response element (Maciasi-Silva et al. Cell 87:1215 (1996)), resulting in the expression of the lucerase gene. Luciferase activity is then measured using a commercial luciferase reporter assay kit (cat #E4550, Promega, Madison, Wis.) according to manufacturer's protocol. A stable line of C2C12 cells that had been transfected with pMARE-luc (C2C12/pMARE clone #44) was used to measure myostatin activity according to the following procedure.
Equal numbers of the reporter cells (C2C12/pMARE clone #44) were plated into 96 well cultures. A first round screening using two dilutions of peptibodies was performed with the myostatin concentration fixed at 4 nM. […] Myostatin activity was measured by determining the luciferase activity in the treated cultures. […]

[5] = target: T1, myostatin; assay: BIAcore direct binding affinity assay on immobilized myostatin; conditions: Table III
Description: An affinity analysis of each candidate myostatin peptibody was performed on a BIAcore® 3000 (Biacore, Inc., Piscataway, N.J.), apparatus using sensor chip CM5, and 0.005 percent P20 surfactant (Biacore, Inc.) as running buffer.
Direct binding assays were used to screen and rank the peptibodies in order of their ability to bind to immobilized myostatin. Binding assays were carried by injection of two concentrations (40 and 400 nM) of each candidate myostatin-binding peptibody to the immobilized myostatin surface at a flow rate of 50 μl/min for 3 minutes. After a dissociation time of 3 minutes, the surface was regenerated. Binding curves were compared qualitatively for binding signal intensity, as well as for dissociation rates. Peptibody binding kinetic parameters including ka (association rate constant), kd (dissociation rate constant) and KD (dissociation equilibrium constant) were determined using the BTA evaluation 3.1 computer program (Biacore, Inc.). The lower the dissociation equilibrium constants (expressed in nM), the greater the affinity of the peptibody for myostatin.

IC50 [4]: 0.857 to 2.65 nM
B1: 2xmTN8-19-7: 2x peptibody, two mTN8-19-7 peptides in tandem on Fc (SEQ ID NO: 615) (protein)
chain: GGGGGAQLADHGQCIRWPWMCPPEGWELEGSGSATGGSGSTASSGSGSATGLADHGQCIRWPWMCPPEGWELE
modifications: Peptibody
half-life [1]: about 106 hours | body weight gain [2]: greater body weight gain | lean carcass weight at necropsy [2]: greater | increase in gripping strength compared with control-treated mice [3]: 15%

Kd [5]: ~7 nM
B2: ActRIIB/Fc: soluble receptor fusion protein actRIIB/Fc (R&D Systems) (protein)
chain: SGRGEAETRECIYYNANWELERTNQSGLERCEGEQDKRLHCYASWRNSSGTIELVKKGCWLDDFNCYDRQECVATEENPQVYFCCCEGNFCNERFTHLPEAGGPEVTYEPPPTAPT
modifications: left off: a dimerising Fc or GST

IC50 [4]: 1.08 to 1.22 nM
B3: 2xmTN8-19-7(-LE): 2x mTN8-19-7 peptibody with the LE sequences deleted (SEQ ID NO: 617) (protein)
chain: GGGGGAQLADHGQCIRWPWMCPPEGWEGSGSATGGSGGGASSGSGSATGLADHGQCIRWPWMCPPEGWE
modifications: Peptibody
